Source: the domain aggregation screens of Martell et al. (2025)

Experiment: soluble fraction after stress (log2 fold change); higher = more stays soluble; pooled small domains, quantitative proteomics
Details: stress: 75 degC
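Note: 20 min heating vs room temperature control held 20 min.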

Q: With “HMDLEGLSNKELVTLRGQIQDDLNKWATEVGIIDPKNRPDDYNRALQSLEDAKRQRSAIDAKL” as the sequence, how does the “soluble fraction (log2)” value read?
A: 0.0844

Q: Which “soluble fraction (log2)” value does the source give for “HMDLEIENYDLREILNLFKLDYNFDNVDLKRAQKIALKTHPDKSNLPKEYFMFFMKAFQIVQQIYYYRY” here?
A: -0.441

Q: With “HMDLFREERRQAILDWLATAGRVSVAELSASFGVSEVTVRADLQALADRRLVVRTHGGAMMAG” as the sequence, how does the “soluble fraction (log2)” value read?
A: -2.1

Q: Which “soluble fraction (log2)” value does the source give for “HMDLHSQVFESYERKIREVLREGPLTFEEILHAFALKRHETVAQVITYLMDEGKMSDSGDGKLIYSG” here?
A: -0.86

Q: Which “soluble fraction (log2)” value does the source give for “HMDLIISDIRMPEMRGDDFLEWIKANELFKHIPVIMLSSEDSTTERIRLLEIGAEDYIVKPFNPMELKIR” here?
A: -0.495

Q: With “HMDLLIFSPSLGQHVRDLKRVIDRLHQHGIPVRWQKAKLLREEIEYIGWTWKSGGLIDPTNV” as the sequence, how does the “soluble fraction (log2)” value read?
A: -0.672

Q: Which “soluble fraction (log2)” value does the source give for “HMDLMSTNEKLLYTMRYLISKSLDGAITEEEIRRLDRLIIENSQARAYYVEYLQIHTHLRKLMQQNPELK” here?
A: -2.39

Q: With “HMDLRIIKTKKAIKTAFLNLLKENKYHNITISAISETALINRKTFYAHYETKDELYADVIEDALRVLSP” as the sequence, how does the “soluble fraction (log2)” value read?
A: 0.114

Q: For “HMDLRIKEIMSERNVTSAWLAEKVGISKVAVSNIVTGKSSPSLDNLLKIADALNVSITTLIG”, which “soluble fraction (log2)” value is on record?
A: -2.6

Q: Which “soluble fraction (log2)” value does the source give for “HMDLRYKVQYNFIDQGMMTKDELLKFSLNQDDVSKIAVFDNDSKQWKEIYAITEISEKLGIS” here?
A: -0.452

Q: With “HMDLTIEQTTVLGKRLFSNALNSLGKKQRNIKKDAIESLLKRMNLKDMDQLYESIGIGDKSPLLMAQILL” as the sequence, how does the “soluble fraction (log2)” value read?
A: -0.156

Q: Which “soluble fraction (log2)” value does the source give for “HMDLVIALNSRIRVIREPFFGKLGTVIDLPHKLHKMESGTMTRVAKIKFDDRTEEIIPRTNLEVILS” here?
A: -3.54

Q: With “HMDLYEILGVRRGAGGGEIRRAYRRLARRYHPDVNPGDREAQARYALITRAFETLNDPERRRAYDAGVP” as the sequence, how does the “soluble fraction (log2)” value read?
A: -0.817

Q: With “HMDMAENEEYKVIMGQAQQLAEQFFPADDNTRRIMLGQLKLENYSLYLLTKQILDEATKGQAAAAN” as the sequence, how does the “soluble fraction (log2)” value read?
A: -0.264

Q: Which “soluble fraction (log2)” value does the source give for “HMDNFDVVLTSPGDQKVQVIKAVRSITGLGLKEAKDLVDGAPNTVKEGVKKLDAEEMLKQLTEAGATGEL” here?
A: 0.35

Q: For “HMDNFQFIGYSQQQGQIAVAWIKSLDNGRLVRVEVSDSLEGWRVSDISAQGVNLTKGQQWLMLKRL”, which “soluble fraction (log2)” value is on record?
A: -1.74

Q: Which “soluble fraction (log2)” value does the source give for “HMDNIGKTLGQNQTRQYKVAYAEAAKLPAIIMGLVPLPKPPVVDERLRSLYVTATPEQHRQIETLMNRI” here?
A: -0.114

Q: For “HMDNITIYSSNGKIYVNAIGGEKIELFNITGQKVAEKVAVSGINVLDAVYDITLVKVGSKVVKVV”, which “soluble fraction (log2)” value is on record?
A: -2.36

Q: Which “soluble fraction (log2)” value does the source give for “HMDNLATRILKELNNNDGFLPLSDKSQPEAIYQAFGISKKSYKTAIGTLYKKRLITISENGIQLTD” here?
A: -0.67

Q: Which “soluble fraction (log2)” value does the source give for “HMDNLSQMQERILEFIIRSKDQSGYTPSLREIGDEVGLKAVSSVKYQLEQLKDAHYISFDANTARAIRVLI” here?
A: -1.68

Q: With “HMDNMFVEERQALIYEELQSNGRVRVKDLSKKFNVSEDLIRKDLNVLEKEGKLRKIYGGAVLAK” as the sequence, how does the “soluble fraction (log2)” value read?
A: 0.237

Q: Which “soluble fraction (log2)” value does the source give for “HMDNNNQAAFMGALNSLKEYAKVNGNIVTKQDVESYFKDLGLDDSKYQMITGYLLANDITVKG” here?
A: 0.181

Q: With “HMDNQYGVYSDEKNNVEIHWKRIDHPSVAKDHLDIEAYQNGKRVDINNQQADHYRYLINQEMNE” as the sequence, how does the “soluble fraction (log2)” value read?
A: 0.201

Q: Which “soluble fraction (log2)” value does the source give for “HMDPAFAQHHDRALSILHSRGYEVHDSDTDLHWARPVLEFEAYKGSLEYKIVMSYPDLNIIEERVD” here?
A: -0.906

Q: For “HMDPASYEARLSTLREQGAQQLDPVRFQYLATLAQRLPTQTPGVALILANKLRAGLSDYEQRLSEAGS”, which “soluble fraction (log2)” value is on record?
A: -0.0569

Q: With “HMDPDAIVSKGQLGALNNAIGRFIAQGGSQTVVDKGIAKRNPNAKKPADLTNSQAESLEAAILKILNG” as the sequence, how does the “soluble fraction (log2)” value read?
A: 0.73

Q: Which “soluble fraction (log2)” value does the source give for “HMDPLGALSDRERQVLALIGQGHGLQAIADQLGVSYKTAANTSSALKKKLGVDGINGLMKFALDSG” here?
A: -0.443

Q: Which “soluble fraction (log2)” value does the source give for “HMDPLGGFTKGDVDMDGRVAVNDAVMVLKNAIKLMELDTQQLMLADADNDGKITVNDAVMILKKAIKLID” here?
A: -0.149

Q: Which “soluble fraction (log2)” value does the source give for “HMDPTLFRLNILEGLGLEKKNLTSEEQEQLRFLYEHFSMKEILMTIDYIKKLNLEKSIVNLYRLMQHP” here?
A: -0.823

Q: With “HMDPTVEENKLNPRDLLIIQRVKEGRTNKEIAEELNVAEITVKKQLSSLYQRYKVHNRNQLLLALD” as the sequence, how does the “soluble fraction (log2)” value read?
A: -0.285

Q: With “HMDPVQLEVIKKLNLLNAQKPKDIYALRDVLSEMFPQSDIRLLLKELLDKGYIYWNGHEVIYSHEMF” as the sequence, how does the “soluble fraction (log2)” value read?
A: -0.272

Q: For “HMDPYEYQLELEKLINNATELNKKYNYDPLKDKILAADAVKNSLETYVLQNYIVALENEIKQTLNQYQIL”, which “soluble fraction (log2)” value is on record?
A: -0.685

Q: For “HMDQNDYMLTRIRNGQMRNKVSVSMPASKIKSAIAAVLKDEGYIENFALNDSSGKPSLIVNLKYYAGQPV”, which “soluble fraction (log2)” value is on record?
A: -0.0681

Q: For “HMDQPVIDVREFGARGDGKQDDAPAIQAAVRLAEQLGGGRVVVPATREFYLLGSTIRIRGHHVTLTGPGAR”, which “soluble fraction (log2)” value is on record?
A: 0.0456

Q: For “HMDRAIAAHLEARVRDALKQLSPEQTRVIELFFFDNKTHAEIENDLKIPLGTVKSRLRLALNKLRASL”, which “soluble fraction (log2)” value is on record?
A: -2.55

Q: For “HMDRASGEEEALKEAEDAISRVWEFDGPVELNPQNSYLRRLQHELASRYNVKSVSIGQEPNRRVVYYK”, which “soluble fraction (log2)” value is on record?
A: -0.163

Q: Which “soluble fraction (log2)” value does the source give for “HMDRDPAEAGYDDGYLSGNTDGMNNDERATYDESSQYPTPDERQSYAAAYRRGYAAGFADGRKQAV” here?
A: -0.000174

Q: Which “soluble fraction (log2)” value does the source give for “HMDREIVEAIVPLEAAGKRFDAALAEMFPEFSRSRLTEWIKAGDALLAGEIVKPKVSVRGGEAVSLSIRV” here?
A: -0.765

Q: With “HMDRELVALVQKALSQLSEQQRRIVELHVMEGMKYLEIADLLQLSENTVRTHLKRAYKILRENH” as the sequence, how does the “soluble fraction (log2)” value read?
A: -1.98

Q: For “HMDRERFIKLGREIARAAFENVGKKATDKVLNSAAKKLRLEDGDEVLARLGSAEIEARSVVQAVYPDLI”, which “soluble fraction (log2)” value is on record?
A: 0.286

Q: With “HMDRKARRKYIEQVVNDRKIETQEELLKLLTEAGFETTQATISRDIHALNIVKANDGDGHTHYVQLH” as the sequence, how does the “soluble fraction (log2)” value read?
A: -0.0596

Q: With “HMDRKEEIIIVTLKLASQIGLSNVSMEQIAKQVGIKKPSLYNHFKSKDEIIDAMYEYLREKSKN” as the sequence, how does the “soluble fraction (log2)” value read?
A: -2.16

Q: With “HMDRMIPPYGLEVTYDKTTHIIFPSAVRYVDLGSPNLIAGKADGSENVIRVKATRKNFREETNMSVITE” as the sequence, how does the “soluble fraction (log2)” value read?
A: 0.152

Q: With “HMDRPEPLYIVNGKEVQTLEEAFELGRTLGSAKKGTQVRLRRLLPEEGVEKYGEKGRNGVFEFMVSA” as the sequence, how does the “soluble fraction (log2)” value read?
A: 0.269

Q: For “HMDRPLRTKEHFARFAGEQVVVKTSSPIDGRSSFTGTLEGMEGDDVIVEVDGSRIAIGYSLIKRAHVVG”, which “soluble fraction (log2)” value is on record?
A: 0.00178

Q: With “HMDRRFFVAEENYKRLDVFLSERMEEFTRSRIKKLIDEGHVELNGKSAKAGAEIRPGDEVAAEIPEVKE” as the sequence, how does the “soluble fraction (log2)” value read?
A: 0.195

Q: Which “soluble fraction (log2)” value does the source give for “HMDRRIDIANAVKTALGSLPERQKTAIVLVHYEGFSGAETAKLLGISVEAVESLLARARRNLRQTLGP” here?
A: -0.471

Q: With “HMDRTIGEIGLVTETIDSTLESGRVMVDGLSWKARTSDNTVLEAGTRVQVKEIHGVTLTVEKA” as the sequence, how does the “soluble fraction (log2)” value read?
A: 0.292

Q: Which “soluble fraction (log2)” value does the source give for “HMDRTLTYTVSIEESDLRADQFLSRRGFSSHLLTRLRKNMEHLLINGTPSRTNTHLHEGDILTVHIVEE” here?
A: -2.19

Q: With “HMDRWTPLIVAVLIEGSHRFGELRSAIGGITPKVLTETLRSMERDGLVTRDQVPGVPPRVDYALTPLG” as the sequence, how does the “soluble fraction (log2)” value read?
A: -0.462

Q: Which “soluble fraction (log2)” value does the source give for “HMDRYVDEEKRFYWRSGEAYLNFSKYKDRSLAEVATVDPGFLRWMMEADFSPETKQIVERALEGEFPQKK” here?
A: -0.29

Q: Which “soluble fraction (log2)” value does the source give for “HMDSADADLLRRIEDLLSSRRSVIREARLADMLGVPRDQVARALDLLQERGVIGLTTDSGMKRIAFRRN” here?
A: -0.356

Q: For “HMDSAQLARWAATILAQNGRKITPSTMNLFLERVGDDMENIRMELEKLISYTMGSEVVTAEDVKVITTVQ”, which “soluble fraction (log2)” value is on record?
A: -1.01

Q: Which “soluble fraction (log2)” value does the source give for “HMDSAVLQKHLVKLIELHAPIKARNLAKILADEFGKHVDRSAVNSALYSLKAERKVEVNSSYEWSLD” here?
A: -2.25

Q: With “HMDSDRAARLSSLTPQQFRVLRMVSEGQLNKQIAYQLNISEATVKSHVSAILQKLGVNSRTQAVILATRLD” as the sequence, how does the “soluble fraction (log2)” value read?
A: -3.37
